From patent US20260069656A1, “Nutritive Polypeptides and Formulations Thereof, and Methods of Production and Use Thereof” (Axcella Health Inc., priority 2013, published 2026)

Columns and labels:
[1] = pH solubility screen in Citric Acid / Dibasic Sodium Phosphate buffers; assay type: physicochemical
Experimental: pH Solubility. […] Protein was either lyophilized and then resuspended in buffer cocktail mixtures, or concentrated and then spiked into buffer cocktail mixtures at a final protein concentration of 5 to 30 mg/ml. As a control, protein was also dissolved in a solution of 8 M urea. Protein solutions were shaken for 10 min at room temperature. Turbidity of proteins was determined by measuring the absorbance of protein solutions at 650 nm. The protein solution was then centrifuged for 10 min at 1100×g to pellet undissolved or precipitated protein. The soluble protein fraction (supernatant) was sampled and protein concentration was measured by one or more of the following methods: Coomassie Plus Protein Assay (Pierce), Chip electrophoresis, gel electrophoresis, and/or absorbance at 280 nm. The pH range over which select proteins remained greater than 80% soluble as determined by Bradford and the A650 value are listed in Table E31C.

[2] = Rat pharmacokinetic studies, plasma amino acids by HPLC; details: oral administration to rats
Experimental: Rat pharmacokinetic studies. Male Sprague Dawley rats with indwelling jugular vein cannula (JVC) were purchased from Harlan Laboratories and acclimated to the Test Facility (Agilux Laboratories) for at least two days prior to study initiation. Prior to dose administration animals were fasted overnight (11-13 h) and remained fasted until completion of the study. Test articles were orally administered via a bulb-tipped 18 gauge stainless steel gavage needle attached to a syringe. The weight of all dose syringes were recorded prior to and following dosing to more accurately determine the amount of solution dosed. Serial blood samples (˜300 μL) were collected from the JVC at time 0 (pre-dose) and 0.25, 0.5, 1, 2, and 4 h post-dose. Blood samples were collected into tubes containing the anti-coagulant K2EDTA, a general protease inhibitor cocktail (Sigma P8340, diluted 1:100 in whole blood), and a DPP IV inhibitor (Millipore DPP4, diluted 1:100 in whole blood). Immediately following blood collection tubes were vortexed and stored on wet ice until processing to plasma by centrifugation (3,500 rpm at 5° C.) within 1 h of collection. Plasma samples were then transferred into new tubes and stored at −80° C.
The concentration of Glu, Ser, His, Gly, Thr, Arg, Ala, Tyr, Val, Met, Phe, Ile, Leu, and Lys in the plasma samples was determined by HPLC amino acid analysis, as described herein. Prior to HPLC amino acid analysis, insoluble particles were removed from plasma samples by centrifugation (1100×g at 4° C.) for 10 min. A 25 μL sample of the soluble fraction was then transferred to a 96-well plate, for some samples an internal standard (Norvaline, Agilent) was added to each plasma sample at final concentration of 0.5 mM.

[3] = Thermostability, ProteoStat Thermal Shift Stability Kit, temperature of aggregation; assay type: physicochemical; details: pH 7.1; heated from 25° C. to 95° C.
Experimental: Thermostability. The thermostability of proteins in a buffer cocktail of Citric Acid and Dibasic Sodium Phosphate over a pH range of 2.8 to 7.1 (preparation described above in Table E31B) was determined using the ProteoStat® Thermal Shift Stability Kit (Enzo Life Sciences) according to the manufacturer's standard protocol. Briefly, protein solutions (˜10 mg/ml) containing 1× ProteoStat TS Detection Reagent were heated from 25° C. to 95° C. at a rate of 0.5° C. per 30 sec using a real-time PCR (rtPCR) thermocycler (BioRad) equipped with a plate reader (SynergyMx, Biotek) while monitoring the fluorescence with a Texas Red filter.

[4] = Intact half-life during simulated gastric fluid (SGF) digestion; details: SGF pH 1.5, pepsin:polypeptide 1:20 w/w, 37° C.; produced in E. coli unless otherwise noted

SEQID-00240: nutritive polypeptide naturally produced in Cow, recombinantly expressed in E. coli (DLEGSLEQEKKLRMDLERAKRKLEGDLKLAQESTMDIENDKQQLDEKLKK; listed as Bos taurus)
pH Range where Protein is >80% detected as Soluble and A650 <1 OD: Low ([1]; lower pH of range): 6.6
pH Range where Protein is >80% detected as Soluble and A650 <1 OD: High ([1]; upper pH of range): 9.1
plasma Phe concentration [2]: causing no flux in plasma Phe concentration
change in AUC0-4 h for plasma Lys ([2]; doses of Table E33A): increased the change in AUC0-4 h for plasma Lys
Tagg (pH 7.1) [3]: >95
SGF Half-life (t½) [4]: 42 s
